Patent US20060182721A1

Target: Notch on human peripheral blood CD14-positive cells (human)
Test: cell-based or functional assay

A level of HES-1 gene expression (real-time RT-PCR, ratio to GAPDH) in CD14-positive cells after 24 hours of culture of 8 times was found for “Delta-1 construct composed of the human Delta-1 extracellular domain and 6 myc proteins (from UniProt O00548 18-545) (ligand)” in this work.
